Reference: the supplement of paper PMC5998384

Assays:
HeLa Kyoto [1] = test: solubility in G1/S (NP-40 vs SDS abundance) (log2 ratio); higher = more soluble; settings: cell cycle stage: G1/S
HeLa Kyoto [2] = test: solubility change mitosis vs G1/S (difference of NP-40 vs SDS log2 ratios) (log2 ratio difference); higher = more soluble in mitosis
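Wherever solubility change mitosis vs G1/S (difference of NP-40 vs SDS log2 ratios) is given: synchronized HeLa Kyoto cells (double thymidine block for G1/S, nocodazole release for mitosis), protein amounts in NP-40 versus SDS lysates quantified by mass spectrometry, three biological replicates.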
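Wherever solubility in G1/S (NP-40 vs SDS abundance) is given: HeLa Kyoto cells arrested at G1/S by double thymidine block, proteins quantified by TMT10plex mass spectrometry in mild NP-40 versus SDS extracts, three biological replicates.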

Substance	solubility in G1/S (log2) (HeLa Kyoto [1])	solubility change mitosis (log2) (HeLa Kyoto [2])
MASKRKSTTPCMVRTSQVVEQDVPEEVDRAKEKGIGTPQPDVAKDSWAAELENSSKENEVIEVKSMGESQSKKLQGGYECKYCPYSTQNLNEFTEHVDMQHPNVILNPLYVCAECNFTTKKYDSLSDHNSKFHPGEANFKLKLIKRNNQTVLEQSIETTNHVVSITTSGPGTGDSDSGISVSKTPIMKPGKPKADAKKVPKKPEEITPENHVEGTARLVTDTAEILSRLGGVELLQDTLGHVMPSVQLPPNINLVPKVPVPLNTTKYNSALDTNATMINSFNKFPYPTQAELSWLTAASKHPEEHIRIWFATQRLKHGISWSPEEVEEARKKMFNGTIQSVPPTITVLPAQLAPTKVTQPILQTALPCQILGQTSLVLTQVTSGSTTVSCSPITLAVAGVTNHGQKRPLVTPQAAPEPKRPHIAQVPEPPPKVANPPLTPASDRKKTKEQIAHLKASFLQSQFPDDAEVYRLIEVTGLARSEIKKWFSDHRYRCQRGIVHITSESLAKDQLAIAASRHGRTYHAYPDFAPQKFKEKTQGQVKILEDSFLKSSFPTQAELDRLRVETKLSRREIDSWFSERRKLRDSMEQAVLDSMGSGKKGQDVGAPNGALSRLDQLSGAQLTSSLPSPSPAIAKSQEQVHLLRSTFARTQWPTPQEYDQLAAKTGLVRTEIVRWFKENRCLLKTGTVKWMEQYQHQPMADDHGYDAVARKATKPMAESPKNGGDVVPQYYKDPKKLCEEDLEKLVTRVKVGSEPAKDCLPAKPSEATSDRSEGSSRDGQGSDENEESSVVDYVEVTVGEEDAISDRSDSWSQAAAEGVSELAESDSDCVPAEAGQA [ZHX2]	0.134	-0.0666
MADFEELRNMVSSFRVSELQVLLGFAGRNKSGRKHDLLMRALHLLKSGCSPAVQIKIRELYRRRYPRTLEGLSDLSTIKSSVFSLDGGSSPVEPDLAVAGIHSLPSTSVTPHSPSSPVGSVLLQDTKPTFEMQQPSPPIPPVHPDVQLKNLPFYDVLDVLIKPTSLVQSSIQRFQEKFFIFALTPQQVREICISRDFLPGGRRDYTVQVQLRLCLAETSCPQEDNYPNSLCIKVNGKLFPLPGYAPPPKNGIEQKRPGRPLNITSLVRLSSAVPNQISISWASEIGKNYSMSVYLVRQLTSAMLLQRLKMKGIRNPDHSRALIKEKLTADPDSEIATTSLRVSLMCPLGKMRLTIPCRAVTCTHLQCFDAALYLQMNEKKPTWICPVCDKKAAYESLILDGLFMEILNDCSDVDEIKFQEDGSWCPMRPKKEAMKVSSQPCTKIESSSVLSKPCSVTVASEASKKKVDVIDLTIESSSDEEEDPPAKRKCIFMSETQSSPTKGVLMYQPSSVRVPSVTSVDPAAIPPSLTDYSVPFHHTPISSMSSDLPGLDFLSLIPVDPQYCPPMFLDSLTSPLTASSTSVTTTSSHESSTHVSSSSSRSETGVITSSGSNIPDIISLD [PIAS2]	0.155	-0.0526
MNSDQDVALKLAQERAEIVAKYDRGREGAEIEPWEDADYLVYKVTDRFGFLHEEELPDHNVAVERQKHLEIERTTKWLKMLKGWEKYKNTEKFHRRIYKGIPLQLRGEVWALLLEIPKMKEETRDLYSKLKHRARGCSPDIRQIDLDVNRTFRDHIMFRDRYGVKQQSLFHVLAAYSIYNTEVGYCQGMSQITALLLMYMNEEDAFWALVKLFSGPKHAMHGFFVQGFPKLLRFQEHHEKILNKFLSKLKQHLDSQEIYTSFYTMKWFFQCFLDRTPFTLNLRIWDIYIFEGERVLTAMSYTILKLHKKHLMKLSMEELVEFFQETLAKDFFFEDDFVIEQLQISMTELKRAKLDLPEPGKEDEYPKKPLGQLPPELQSWGVHHLSNGQRSVGRPSPLASGRRESGAPHRRHEHSPHPQSRTGTPERAQPPRRKSVEEESKKLKDEADFQRKLPSGPQDSSRQYNHAAANQNSNATSNIRKEFVPKWNKPSDVSATERTAKYTMEGKGRAAHPALAVTVPGPAEVRVSNVRPKMKALDAEDGKRGSTASQYDNVPGPELDSGASVEEALERAYSQSPRHALYPPSPRKHAEPSSSPSKVSNKFTFKVQPPSHARYPSQLDGEARGLAHPPSYSNPPVYHGNSPKHFPTANSSFASPQFSPGTQLNPSRRPHGSTLSVSASPEKSYSRPSPLVLPSSRIEVLPVDTGAGGYSGNSGSPKNGKLIIPPVDYLPDNRTWSEVSYTYRPETQGQSWTRDASRGNLPKYSAFQLAPFQDHGLPAVSVDSPVRYKASPAAEDASPSGYPYSGPPPPAYHYRNRDGLSIQESVLL [USP6NL]	-0.388	-0.321
MDSSSSSSAAGLGAVDPQLQHFIEVETQKQRFQQLVHQMTELCWEKCMDKPGPKLDSRAEACFVNCVERFIDTSQFILNRLEQTQKSKPVFSESLSD [TIMM8A]	-0.653	0.392
MCDQQKQPQFPPSCVKGSGLGAGQGSNGASVKCPVPCQTQTVCVTGPAPCPTQTYVKYQVPCQTQTYVKCPAPCQRTYVKYPTPCQTYVKCPAPCQTTYVKCPTPCQTYVKCPAPCQMTYIKSPAPCQTQTCYVQGASPCQSYYVQAPASGSTSQYCVTDPCSAPCSTSYCCLAPRTFGVSPLRRWIQRPQNCNTGSSGCCENSGSSGCCGSGGCGCSCGCGSSGCCCLGIIPMRSRGPACCDHEDDCCC [XP32]	-1.33	1.06
MENELPVPHTSSSACATSSTSGASSSSGCNNSSSGGSGRPTGPQISVYSGIPDRQTVQVIQQALHRQPSTAAQYLQQMYAAQQQHLMLQTAALQQQHLSSAQLQSLAAVQQASLVSNRQGSTSGSNVSAQAPAQSSSINLAASPAAAQLLNRAQSVNSAAASGIAQQAVLLGNTSSPALTASQAQMYLRAQMLIFTPTATVATVQPELGTGSPARPPTPAQVQNLTLRTQQTPAAAASGPTPTQPVLPSLALKPTPGGSQPLPTPAQSRNTAQASPAGAKPGIADSVMEPHKKGDGNSSVPGSMEGRAGLSRTVPAVAAHPLIAPAYAQLQPHQLLPQPSSKHLQPQFVIQQQPQPQQQQPPPQQSRPVLQAEPHPQLASVSPSVALQPSSEAHAMPLGPVTPALPLQCPTANLHKPGGSQQCHPPTPDTGPQNGHPEGVPHTPQRRFQHTSAVILQLQPASPPQQCVPDDWKEVAPGEKSVPETRSGPSPHQQAIVTAMPGGLPVPTSPNIQPSPAHETGQGIVHALTDLSSPGMTSGNGNSASSIAGTAPQNGENKPPQAIVKPQILTHVIEGFVIQEGAEPFPVGRSSLLVGNLKKKYAQGFLPEKLPQQDHTTTTDSEMEEPYLQESKEEGAPLKLKCELCGRVDFAYKFKRSKRFCSMACAKRYNVGCTKRVGLFHSDRSKLQKAGAATHNRRRASKASLPPLTKDTKKQPTGTVPLSVTAALQLTHSQEDSSRCSDNSSYEEPLSPISASSSTSRRRQGQRDLELPDMHMRDLVGMGHHFLPSEPTKWNVEDVYEFIRSLPGCQEIAEEFRAQEIDGQALLLLKEDHLMSAMNIKLGPALKIYARISMLKDS [PHC2]	-0.368	0.555
MMKKKKFKFKVDFELEELSSVPFVNGVLFCKMRLLDGGSFTAESSREVVQANCVRWRKKFSFMCKMSASAATGILDPCIYRVSVRKELKGGKAYAKLGFADLNLAEFAGSGNTTRRCLLEGYDTKNTRQDNSILKVLISMQLMSGDPCFKTPPSTSMSIPIAGESESLQEDRKGGETLKVHLGIADLSAKSASVPDELGACGHSRTSSYASQQSKVSGYSTCHSRSSSFSELCHRRNTSVGSTSTGVESILEPCDEIEQKIAEPNLDTADKEDTASEKLSRCPVKQDSVESQLKRVDDTRVDADDIVEKILQSQDFSLDSSAEEEGLRLFVGPGGSTTFGSHHLPNRVGSGAYEQVVIKR [FAM102B]	-0.233	0.0662
MPSSTSPDQGDDLENCILRFSDLDLKDMSLINPSSSLKAELDGSTKKKYSFAKKKAFALFVKTKEVPTKRSFECKEKLWKCCRQLFTDQTSIHRHVATQHADEIYHQTASILKQLAVTLSTSKSLSSADEKNPLKECLPHSHDVSAWLPDISCFNPDELISGQGSEEGEVLLYYCYHDLEDPQWICAWQTALCQHLHLTGKIRIAAEGINGTVGGSKLATRLYVEVMLSFPLFKDDLCKDDFKTSKGGAHCFPELRVGVFEEIVPMGISPKKISYKKPGIHLSPGEFHKEVEKFLSQANQEQSDTILLDCRNFYESKIGRFQGCLAPDIRKFSYFPSYVDKNLELFREKRVLMYCTGGIRCERGSAYLKAKGVCKEVFQLKGGIHKYLEEFPDGFYKGKLFVFDERYALSYNSDVVSECSYCGARWDQYKLCSTPQCRQLVLTCPACQGQGFTACCVTCQDKGSRKVSGPMQDSFKEECECTARRPRIPRELLQHVRQPVSPEPGPDADEDGPVLM [TSTD2]	0.0173	-0.113
ARHGEF11	-0.0113	-0.0196
SLC7A6	-0.00617	-0.122
MAMVVSSWRDPQDDVAGGNPGGPNPAAQAARGGGGGAGEQQQQAGSGAPHTPQTPGQPGAPATPGTAGDKGQGPPGSGQSQQHIECVVCGDKSSGKHYGQFTCEGCKSFFKRSVRRNLTYTCRANRNCPIDQHHRNQCQYCRLKKCLKVGMRREAVQRGRMPPTQPNPGQYALTNGDPLNGHCYLSGYISLLLRAEPYPTSRYGSQCMQPNNIMGIENICELAARLLFSAVEWARNIPFFPDLQITDQVSLLRLTWSELFVLNAAQCSMPLHVAPLLAAAGLHASPMSADRVVAFMDHIRIFQEQVEKLKALHVDSAEYSCLKAIVLFTSDACGLSDAAHIESLQEKSQCALEEYVRSQYPNQPSRFGKLLLRLPSLRTVSSSVIEQLFFVRLVGKTPIETLIRDMLLSGSSFNWPYMSIQCS [NR2F1]	-0.152	0.0314
MWMTPKRSKMEVDEALVFRPEWTQRYLVVEPPEGDGALCLVCRRLIVATRERDVRRHYEAEHEYYERYVADGERAALVERLRQGDLPVASFTPEERAARAGLGLCRLLALKGRGWGEGDFVYQCMEVLLREVLPEHVSVLQGVDLSPDITRQRILSIDRNLRNQLFNRARDFKAYSLALDDQAFVAYENYLLVFIRGVGPELEVQEDLLTIINLTHHFSVGALMSAILESLQTAGLSLQRMVGLTTTHTLRMIGENSGLVSYMREKAVSPNCWNVIHYSGFLHLELLSSYDVDVNQIINTISEWIVLIKTRGVRRPEFQTLLTESESEHGERVNGRCLNNWLRRGKTLKLIFSLRKEMEAFLVSVGATTVHFSDKQWLCDFGFLVDIMEHLRELSEELRVSKVFAAAAFDHICTFEVKLNLFQRHIEEKNLTDFPALREVVDELKQQNKEDEKIFDPDRYQMVICRLQKEFERHFKDLRFIKKDLELFSNPFNFKPEYAPISVRVELTKLQANTNLWNEYRIKDLGQFYAGLSAESYPIIKGVACKVASLFDSNQICEKAFSYLTRNQHTLSQPLTDEHLQALFRVATTEMEPGWDDLVRERNESNP [EPM2AIP1]	-0.485	0.291
MAEDEPDAKSPKTGGRAPPGGAEAGEPTTLLQRLRGTISKAVQNKVEGILQDVQKFSDNDKLYLYLQLPSGPTTGDKSSEPSTLSNEEYMYAYRWIRNHLEEHTDTCLPKQSVYDAYRKYCESLACCRPLSTANFGKIIREIFPDIKARRLGGRGQSKYCYSGIRRKTLVSMPPLPGLDLKGSESPEMGPEVTPAPRDELVEAACALTCDWAERILKRSFSSIVEVARFLLQQHLISARSAHAHVLKAMGLAEEDEHAPRERSSKPKNGLENPEGGAHKKPERLAQPPKDLEARTGAGPLARGERKKSVVESSAPGANNLQVNALVARLPLLLPRAPRSLIPPIPVSPPILAPRLSSGALKVATLPLSSRAGAPPAAVPIINMILPTVPALPGPGPGPGRAPPGGLTQPRGTENREVGIGGDQGPHDKGVKRTAEVPVSEASGQAPPAKAAKQDIEDTASDAKRKRGRPRKKSGGSGERNSTPLKSAAAMESAQSSRLPWETWGSGGEGNSAGGAERPGPMGEAEKGAVLAQGQGDGTVSKGGRGPGSQHTKEAEDKIPLVPSKVSVIKGSRSQKEAFPLAKGEVDTAPQGNKDLKEHVLQSSLSQEHKDPKATPP [RFX5]	0.487	-0.117
